Tests used:
[1] = target: MDM2 (UniProt Q00987 1-491); assay: fluorescence polarisation
[2] = target: T1, MDMX (UniProt O15151 1-490); assay: fluorescence polarisation
T1 sequence: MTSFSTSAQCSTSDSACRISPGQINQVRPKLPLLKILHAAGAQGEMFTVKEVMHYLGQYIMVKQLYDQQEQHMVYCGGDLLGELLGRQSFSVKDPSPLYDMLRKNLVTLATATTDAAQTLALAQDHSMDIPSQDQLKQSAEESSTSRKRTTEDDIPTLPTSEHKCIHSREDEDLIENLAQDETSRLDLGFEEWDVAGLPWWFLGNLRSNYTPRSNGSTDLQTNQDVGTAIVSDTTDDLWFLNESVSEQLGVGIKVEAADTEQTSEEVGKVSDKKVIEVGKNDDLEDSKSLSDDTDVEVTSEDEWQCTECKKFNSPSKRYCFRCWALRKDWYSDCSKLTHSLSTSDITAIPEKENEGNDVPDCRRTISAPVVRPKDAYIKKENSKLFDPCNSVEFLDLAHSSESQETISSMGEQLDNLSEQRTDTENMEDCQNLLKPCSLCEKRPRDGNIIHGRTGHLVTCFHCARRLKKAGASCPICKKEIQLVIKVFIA

Chain of MDM2 (Q00987 whole entry): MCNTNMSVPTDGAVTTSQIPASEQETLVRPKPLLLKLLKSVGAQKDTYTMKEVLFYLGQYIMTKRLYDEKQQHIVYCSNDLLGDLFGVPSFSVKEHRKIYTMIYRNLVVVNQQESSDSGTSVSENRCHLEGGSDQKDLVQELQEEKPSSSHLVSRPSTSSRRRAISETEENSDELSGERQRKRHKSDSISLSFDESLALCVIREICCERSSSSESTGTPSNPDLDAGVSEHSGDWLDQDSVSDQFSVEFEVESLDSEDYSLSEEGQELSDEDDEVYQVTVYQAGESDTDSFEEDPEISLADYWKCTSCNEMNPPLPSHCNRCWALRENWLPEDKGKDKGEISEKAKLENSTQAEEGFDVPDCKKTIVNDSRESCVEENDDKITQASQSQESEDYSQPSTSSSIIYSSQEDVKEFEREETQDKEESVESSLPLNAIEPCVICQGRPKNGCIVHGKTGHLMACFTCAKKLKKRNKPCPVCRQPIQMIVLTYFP

IC50 [1]: < 1 nM
IC50 [2]: < 1 nM
Binder: LTFEHYWALLT (designed binder, C-terminal amide) [PF4P_pDI]
